Source: US20240075137A1 (COMPUGEN, published 2024)
Substitutions are numbered along the chain they refer to.

T1: human PVRIG on cells (human, UniProt Q6DKI7 1-326)
T1 construct: whole, on cells; over-expressed on HEK cells or endogenous on Jurkat and CD8 T cells; also called hPVRIG; HEK hPVRIG cells
T1 sequence (looked up): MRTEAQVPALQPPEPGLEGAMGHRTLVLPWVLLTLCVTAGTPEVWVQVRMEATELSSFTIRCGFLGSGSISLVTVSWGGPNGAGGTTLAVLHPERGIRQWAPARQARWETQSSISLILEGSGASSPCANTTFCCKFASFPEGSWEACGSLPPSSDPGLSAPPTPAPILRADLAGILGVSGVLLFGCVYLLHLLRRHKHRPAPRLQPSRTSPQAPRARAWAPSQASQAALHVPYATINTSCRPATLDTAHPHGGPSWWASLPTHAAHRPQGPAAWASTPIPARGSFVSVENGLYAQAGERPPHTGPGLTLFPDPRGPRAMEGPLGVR

T2: cynomolgus PVRIG on cells (cynomolgus, UniProt A0A2K5WVV8 41-322)
T2 construct: whole, on cells; also called cPVRIG; expi cPVRIG cells
T2 sequence: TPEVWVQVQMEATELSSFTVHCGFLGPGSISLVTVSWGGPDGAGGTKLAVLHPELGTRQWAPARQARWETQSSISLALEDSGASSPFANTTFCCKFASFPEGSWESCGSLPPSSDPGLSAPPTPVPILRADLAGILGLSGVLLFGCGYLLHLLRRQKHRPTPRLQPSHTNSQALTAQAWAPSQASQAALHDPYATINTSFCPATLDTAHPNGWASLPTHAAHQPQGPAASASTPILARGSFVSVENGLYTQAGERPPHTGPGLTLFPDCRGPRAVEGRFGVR

T3: PVRIG (FACS-based competition assay of FIGS. 7 and 15) (Homo sapiens, UniProt Q6DKI7)
T3 construct: made because the format of the assay is only described in U.S. Ser. No. 15/048,967; also called human PVRIG
T3 sequence (receptor, looked up): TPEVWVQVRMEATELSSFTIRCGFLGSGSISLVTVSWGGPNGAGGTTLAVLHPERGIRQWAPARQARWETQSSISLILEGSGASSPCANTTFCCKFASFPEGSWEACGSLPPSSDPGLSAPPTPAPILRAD

B1: CHA.7.545 (antibody, V domains shown)
VH: QIQLVQSGPDLKKPGETVKISCKASGYTFTTYGMSWVKQAPGRGLKWMGWINTYSGVSTFPDDFKGRFAFSLETSASTAYLQINNLKNEDSATYFCARLGMGSTTGAGYFDVWGTGTTVTVSS
VL: DIVLTQSPAIMSASPGEKVTMTCSASSSVSSWYLHWYQQKSGASPKLWIYGTSNLASGVPARFSGSGSGTSYSLTISSVEAEDAATYYCQQYRSDPYTFGSGTKLEIK
B2: CHA.7.546 (antibody, V domains shown)
VH: B1 VH with D10E, R43K, F60Y, P61A, K65E, A76V, S91T, M101R, F110L
VL: B1 VL with T20S, R93H
B3: CHA.7.547 (antibody, V domains shown)
VH: B1 VH
VL: ENVLTQSPAIMSASLGEKVTLSCRASSSVNYMYWYQQKSDASPKLWIYYTSNLAPGVPARFSGSGSGNSYSLTISSVEGEDAATYYCQQFTSSPWTFGGGTKLEIK
B4: CHA.7.549 (antibody, V domains shown)
VH: QVQLQQPGTELVKPGASVKLSCKASGFTFTTHWMHWVRQRPGQGLEWIGNIYPSNGGSNYNEKFKTKATLTVDRSSSTAYMHLSSLTSEDSAVYYCARRVNWDGYYFDYWGQGTTLTVSS
VL: DIVMTQSQKFMSTSVGDRVSVTCKASQNVGTNVAWYQQKPGQSPKLLIYSASYRYSGVPDRFTGSGSGTDFTLTISNVQSEDLADYFCQQYNSYPLTFGGGTKLEIK
B5: CHA.7.550 (antibody, V domains shown)
VH: QVQLQESGTELVKPGASVKLSCKASGYTFTSYWIHWVKQRPGQGLEWIGNINPSNGGTNYNEKFKSKAALTVDKSSSTAYMQLSSLTSEDSAVYYCARRGLPYFFDYWGQGTTLTVSS
VL: B4 VL with A25G, T31Y, L46A, I48V, Y53D, Y55H, T63A, D85E, G100A, I106L

These binders were tested against T1, human PVRIG on cells (assay: FACS, HEK hPVRIG cells (HEK OE)).

In order of rising EC50:
1. B2  0.61 nM
2. B1  0.76 nM
3. B5  1.34 nM
4. B4  2.6 nM
5. B3  14.4 nM

Each binder was assayed against T1, human PVRIG on cells (assay: FACS, human PBMC, CD8+ T cells, 10ug/ml).

In order of falling “gMFIr Human CD8+ T cells” value:
1. B2  2.95
2. B1  2.82
3. B4  1.42
4. B5  1.29
5. B3  1.13

Target: T1, human PVRIG on cells
Test: FACS, human PBMC, CD8+ T cells, 10ug/ml
Remark: another data set of the same source

In order of rising “gMFIr Human CD8+ T cells” value:
1. B3  1.13
2. B5  1.29
3. B4  1.42
4. B1  2.82
5. B2  2.95

What follows are binders tested against T1, human PVRIG on cells (assay: FACS, human PBMC, CD56 int. NK cells, 10ug/ml).

In order of rising “gMFIr Human CD56 int. NK” value:
1. B5  1.6
2. B3  2.21
3. B1  2.54
4. B2  2.75
5. B4  3.05

Target: T1, human PVRIG on cells
Test: FACS, human PBMC, CD56 int. NK cells, 10ug/ml
Remark: another data set of the same source

In order of falling “gMFIr Human CD56 int. NK” value:
1. B4  3.05
2. B2  2.75
3. B1  2.54
4. B3  2.21
5. B5  1.6

The binders below were run against T1, human PVRIG on cells (assay: FACS, Jurkat cells, relative to control, 3.3ug/ml).

In order of rising “gMFIr Jurkat” value:
1. B3  1.02
2. B5  2.1
3. B4  2.23
4. B2  6.42
5. B1  6.53

Each binder was assayed against T1, human PVRIG on cells (assay: FACS, HEK hPVRIG over HEK parental cells, 3.3ug/ml).

In order of falling “gMFIr HEK OE/par” value:
1. B1  44.3
2. B2  43.1
3. B4  29.7
4. B5  27.7
5. B3  10.9

Each binder was assayed against T2, cynomolgus PVRIG on cells (assay: FACS, expi cPVRIG over expi parental cells, 3.3ug/ml).

In order of rising “gMFIr Expi cyno OE/par” value:
1. B2  0.85
2. B5  0.9
3. B1  0.91
4. B4  1
5. B3  26.6

Target: T2, cynomolgus PVRIG on cells
Test: as above
Remark: another data set of the same source

In order of rising “gMFIr Expi cyno OE/par” value:
1. B2  0.85
2. B5  0.9
3. B1  0.91
4. B4  1
5. B3  26.6

What follows are binders tested against T3, PVRIG (FACS-based competition assay of …) (assay: FACS-based competition assay of PVRIG blocking; format and competitor not given).

In order of falling IC50:
1. B1  96.1 nM
2. B2  92 nM
3. B5  58.3 nM
4. B4  36.1 nM
5. B3  27.9 nM

Target: T3, PVRIG (FACS-based competition assay of …)
Test: as above
Remark: another data set of the same source

In order of falling IC50:
1. B1  96.1 nM
2. B2  92 nM
3. B5  58.3 nM
4. B4  36.1 nM
5. B3  27.9 nM
